Measurements taken from patent publication US20160347850A1 (AbbVie / Abbott, published 2016).

Legend:
[1] = molecular target: T1, Human CD40 (human, UniProt P25942 21-277); assay: cell-based or functional assay
[2] = molecular target: T1, Human CD40; assay: Alexa 647 labeled Ab102 binding to CD40 on the surface of human B cells
Procedure: (§1) The cross-reactivity of Ab102 with CD40 from various species was tested. […] Binding of Ab102 to mouse, rat, and rabbit CD40 could not be detected at concentrations up to 30 μg/mL (200 nM).

[3] = molecular target: T2, cyno CD40 (cynomolgus monkey, UniProt G7PG38 21-278); assay: Alexa 647 labeled Ab102 binding to CD40 on the surface of cynomolgus monkey B cells
T2 construct: whole, on cells; also called cyCD40; cynomolgus monkey CD40
Procedure: as §1

[4] = molecular target: T3, mouse CD40 (mouse, UniProt P27512 20-289); assay: Alexa 647 labeled Ab102 on the surface of B cells
T3 construct: whole, on cells
T3 sequence (looked up): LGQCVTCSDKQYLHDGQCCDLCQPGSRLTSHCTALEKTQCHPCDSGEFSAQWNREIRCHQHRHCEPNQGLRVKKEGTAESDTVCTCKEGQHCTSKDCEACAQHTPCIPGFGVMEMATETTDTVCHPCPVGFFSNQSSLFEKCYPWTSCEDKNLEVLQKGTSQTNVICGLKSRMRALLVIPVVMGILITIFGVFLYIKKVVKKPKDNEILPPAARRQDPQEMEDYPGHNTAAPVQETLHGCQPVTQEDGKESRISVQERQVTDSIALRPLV

[5] = molecular target: T4, rat CD40 (rat, UniProt A6JXD6 20-289); assay: Alexa 647 labeled Ab102 on the surface of B cells
T4 sequence: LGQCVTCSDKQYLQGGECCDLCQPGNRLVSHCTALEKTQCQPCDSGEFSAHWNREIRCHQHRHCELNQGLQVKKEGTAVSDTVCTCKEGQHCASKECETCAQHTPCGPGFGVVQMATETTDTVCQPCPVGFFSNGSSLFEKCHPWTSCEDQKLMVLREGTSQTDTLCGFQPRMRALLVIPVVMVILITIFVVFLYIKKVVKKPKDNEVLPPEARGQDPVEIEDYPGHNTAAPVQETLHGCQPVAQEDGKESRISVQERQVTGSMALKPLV

T1 sequence (P25942 21-277 limits assumed): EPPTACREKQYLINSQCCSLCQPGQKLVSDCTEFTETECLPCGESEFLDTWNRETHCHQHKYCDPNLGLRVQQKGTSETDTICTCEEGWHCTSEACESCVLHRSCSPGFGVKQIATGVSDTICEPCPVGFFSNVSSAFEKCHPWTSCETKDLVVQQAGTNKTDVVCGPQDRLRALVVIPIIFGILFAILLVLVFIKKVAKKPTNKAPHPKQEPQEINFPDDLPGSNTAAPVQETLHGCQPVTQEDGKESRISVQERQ

B1: Ab102 (antibody, human IgG1, kappa, L234A L235A, V domains shown)
VH: EVQLVESGGGLVKPGGSLRLSCAASGFTFSDYGMNWVRQAPGKGLEWIAYISSGRGNIYYADTVKGRFTISRDNAKNSLYLQMNSLRAEDTAVYYCARSWGYFDVWGQGTTVTVSS
VL: DIVMTQSPDSLAVSLGERATINCKSSQSLLNRGNQKNYLTWFQQKPGQPPKLLIYWASTRESGVPDRFSGSGSGTDFTLTISSLQAEDVAVYYCQNDYTYPLTFGQGTKLEIKR
notes: Humanized IgG1/kappa with L234A, L235A, T250Q, M428L (LALA-QL); also called VL huAbv1/VH huAb1v1CDR2v7/hCg1/k-LALA-QL; mAb CD40 Ab102 [hu IgG1/k]; LALA QL
- Monocyte Activation Assay, Antagonist IC50 (nM), Experiment 1 [1]: 0.06 nM
- Monocyte Activation Assay, Antagonist IC50 (nM), Experiment 2 [1]: 0.23 nM
- Monocyte Activation Assay, Antagonist IC50 (nM), Experiment 3 [1]: 0.11 nM
- EC50 [2]: 0.89 nM
- EC50 [3]: 1.4 nM
- binding result [4]: no binding (tested: 30 µg/mL (200 nM))
- binding result [5]: no binding (tested: 30 µg/mL (200 nM))
